# Source: patent publication US11351270B2, “Junctophilin-2 fragments and uses therefor” (University of Iowa Research Foundation, priority 2016, dated 2022)
# B1: full-length JP2: full-length junctophilin-2, FLAG/HA tagged, expressed by adenovirus (protein, UniProt Q9BR39 1-696, looked up)
# chain: MSGGRFDFDDGGAYCGGWEGGKAHGHGLCTGPKGQGEYSGSWNFGFEVAGVYTWPSGNTFEGYWSQGKRHGLGIETKGRWLYKGEWTHGFKGRYGIRQSSSSGAKYEGTWNNGLQDGYGTETYADGGTYQGQFTNGMRHGYGVRQSVPYGMAVVVRSPLRTSLSSLRSEHSNGTVAPDSPASPASDGPALPSPAIPRGGFALSLLANAEAAARAPKGGGLFQRGALLGKLRRAESRTSVGSQRSRVSFLKSDLSSGASDAASTASLGEAAEGADEAAPFEADIDATTTETYMGEWKNDKRSGFGVSERSSGLRYEGEWLDNLRHGYGCTTLPDGHREEGKYRHNVLVKDTKRRMLQLKSNKVRQKVEHSVEGAQRAAAIARQKAEIAASRTSHAKAKAEAAEQAALAANQESNIARTLARELAPDFYQPGPEYQKRRLLQEILENSESLLEPPDRGAGAAGLPQPPRESPQLHERETPRPEGGSPSPAGTPPQPKRPRPGVSKDGLLSPGAWNGEPSGEGSRSVTPSEGAGRRSPARPATERMAIEALQAPPAPSREPEVALYQGYHSYAVRTTPPEPPPFEDQPEPEVSGSESAPSSPATAPLQAPTLRGPEPARETPAKLEPKPIIPKAEPRAKARKTEARGLTKAGAKKKARKEAALAAEAEVEVEEVPNTILICMVILLNIGLAILFVHLLT
# modifications: full-length FLAG/HA tags; adenoviral expression
# notes: full-length junctophilin-2, FLAG/HA tagged, expressed by adenovirus
# Experiments:
# JP2-KD cardiomyocytes = test: Confocal Ca2+ imaging in JP2-KD cardiomyocytes after adenoviral expression; format: cell-based, mouse
# Excerpt: Specifically, conditional shJP2 mice (provided by Dr. Wehrens) (van Oort et al., 2011) were crossed with mice carrying the cardiac-specific α-myosin heavy chain promoter upstream of Cre (% MHC-Cre, also FVB-Tg(Myh6-cre)2182Mds/J, The Jackson Laboratory). The shJP2 mice were maintained on a C57BL/6 background for more than 10 generations. The αMHC-Cre mice were maintained on an FVB background. PCR was used to genotype the offspring. The near complete depletion of JP2 protein in JP2-KD (αMHC-Cre X shJP2) hearts has been reported recently (Chen et al., 2013). JP2-KD mice were sacrificed at 2 months of age for isolation and culture of ventricular cardiomyocytes as described below.
# (§1) Genecarrior-1 (Epoch Lab) was used to transfect plasmids into HEK293T cells. Isolation and culture of cardiomyocytes were performed as described previously (Guo et al., 2012). […] Ca^2+ Imaging experiments were performed 40 hours after adenoviral infection.
# (§2) Cells were loaded with Rhod-2AM at 37° C. for 20 minutes, followed by washing with Tyrode's solution at room temperature for 15 minutes before Ca^2+ imaging. Confocal images were acquired using a ×63, 1.3 numerical aperture oil immersion objective mounted on a Zeiss LSM 510 confocal microscope. Confocal line scanning was used to record Ca^2+ signals. Steady-state Ca^2+ transients were recorded in Tyrode's solution containing 1.8 mM Ca^2+ under field stimulation of 1 Hz. At least five steady-state transients for each cell were analyzed and averaged to represent Ca^2+ signals of the cell. Ca^2+ imaging data were analyzed by using a home-complied software, CaTeasy, which is coded in MATLAB 2013a (Mathworks). Briefly, the program normalizes Ca^2+ transient images on a column-by-column basis (512 columns/image). The characteristic parameters of normalized transients were detected automatically. The firing time of every scanning pixel was detected column by column on the basis of the maximum local variability of pixel intensity. The profile of the point-to-point firing time was indicated by a red line overlapping on the Ca^2+ image. Index of desynchronization, defined by the mean absolute deviation of firing time of each scanning pixel (with every 8 pixels binned), was used to evaluate the dyssynchrony of Ca^2+ transients. This automated software for calcium transient analysis is available upon request.
# WT cardiomyocytes = test: Confocal Ca2+ imaging in WT cardiomyocytes after adenoviral expression; format: cell-based, mouse; conditions: 1-Hz field stimulation; overexpression in WT cardiomyocytes
# Procedure: as §1
# as §2, with “Index of desynchronization, defined by the mean absolute deviation of firing time of each scanning pixel (with every 8 pixels binned), was used to evaluate the dyssynchrony of Ca^2+ transients. This automated software for calcium transient analysis is available upon request.” left out
# RyR2 and Cav1.2 = test: Coimmunoprecipitation with E-C coupling channels; format: binding, mouse; conditions: anti-HA immunoprecipitation
# Excerpt: FIGS. 5A-H. JP2 truncations are nonfunctional in regulating Ca^2+ transients. A) An antibody against the HA tag was used to reveal the localization of adenoviral expression of tagged full-length JP2 and truncations, as indicated, in adult wild-type cardiomyocytes. All the three version of JP2 can be localized in the striated pattern. B) Full-length JP2 and JP2(1-565) forms complexes with RyR2 and Cav1.2 In vivo. An antibody against HA was used for immunoprecipitation […]. The RyR2 and Cav1.2 that were pulled down were detected by Western blot analysis. […] IB, immunoblot. C) Adenovirus-mediated expression of full-length JP2, FLAG-JP2(1-565)-HA, and JP2(566-end)-HA in JP2-KD) cardiomyocytes. D) Representative steady-state Ca^2+ transients under 1-Hz field stimulation. The fluorescence intensity (F) of Ca^2+ imaging was normalized to the baseline (FO). The red lines overlapping on Ca^2+ imaging show the profile of the moment of Ca^2+ transient firing on the scanning line in a point-by-point way. A straighter line means better synchronization of the Ca^2+ transients. Note that expression of full-length JP2, but not JP2 truncations, improves the amplitude and synchronization of Ca^2+ transients. E-G) Summary of Ca^2+ transient amplitude, index of desynchronization (mean absolute deviation of firing time), and duration of 50% decay (T5) (n=68, 70, 70, and 52 for Ad-Empty, Ad-JP2, […], and Ad-JP2(566-end), respectively). Only full-length JP2 Improves the amplitude, synchronization, and decay of Ca^2+ transients. H) Summary of SR Ca^2+ content, which was assessed by caffeine-induced SR Ca^2+ release (n=17, 17, 17, and 12 for Ad-Empty, Ad-JP2, Ad-JP2(1-565), and Ad-JP2(566-end), respectively). **, p<0.01 versus indicated groups; N.S., not significant.
# Cleavage at the primary calpain proteolysis site (Arg-565/Thr-566) splits apart the C-terminal SR-binding TM domain and N-terminal plasma membrane-binding MORN domains of JP2. […]
# [1] = system: cultured adult murine cardiomyocytes; test: Affymetrix Genechip analysis of cultured cardiomyocytes; format: cell-based, mouse; conditions: vs Ad-Empty control
# Procedure: Genecarrior-1 (Epoch Lab) was used to transfect plasmids into HEK293T cells. Isolation and culture of cardiomyocytes were performed as described previously (Guo et al., 2015). Adenoviruses were applied at a multiplicity of infection (MOI) of about 100, which results in transfection of almost all cells as confirmed by immunostaining of eptiope tags.
# Microarray assay was performed by Affymetrix GeneChip® Mouse Genome 430 2.0 according to the standard procedure of cRNA preparation and Genechip hybridization. The R package limma (version 3.22.7) (Ritchie et al., 2015) was used for processing microarray data and identifying differentially expressed genes (the cutoff of significance was p value<0.01). David (Huang et al., 2009) was used for gene enrichment (GO) analysis. Ingenuity pathway analysis (IPA, Qiagen) was used for pathway analysis.
molecule,measurement,setting,value
B1,decay phase (T50) of Ca2+ transients,JP2-KD cardiomyocytes; 1-Hz field stimulation,shortened decay phase
same,synchronization of Ca2+ transients (index of desynchronization),JP2-KD cardiomyocytes; 1-Hz field stimulation,increased synchronization
same,increase of Ca2+ transient amplitude,"JP2-KD cardiomyocytes; 1-Hz field stimulation, adenoviral expression",50%
same,SR Ca2+ content,JP2-KD cardiomyocytes; caffeine-induced SR Ca2+ release,not influenced
same,kinetics of steady-state Ca2+ transients and SR Ca2+ loading,WT cardiomyocytes,did not alter
same,interaction with RyR2 and Cav1.2,RyR2 and Cav1.2,interact
same,significantly induced known genes (p<0.01),[1],96 genes
same,significantly repressed known genes (p<0.01),[1],264 genes
